Source: the supplement of paper PMC9170038

Test system: MS2 coat protein
Assay: apparent KD of MS2 coat protein; designed switch direction (-1 OFF switch, 1 ON switch): -1; higher = weaker reporter binding
Summary of the method: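 The buffer was Tris-HCl pH 7.5 with KCl, MgCl2, BSA, DTT, tRNA and Tween-20. In it, SNAP-549-labelled MS2 coat protein was titrated in doubling steps from 0.7 or 1.5 nM to 3 µM over chip-bound RNA switches transcribed by stalled E. coli RNA polymerase on Illumina chips. Apparent KD is the per-design median over clusters of curve fits to normalised fluorescence.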

[1] = input ligand: microRNA oligo, concentration not stated
[2] = Eterna round: R95, input ligand: FMN 200 uM
[3] = Eterna round: R95, input ligand: microRNA oligo, concentration not stated
[4] = Eterna round: R95, input ligand: none

Sequence	apparent KD of MS2 coat protein (input ligand: FMN 200 uM) [nM]	apparent KD of MS2 coat protein [1] [nM]	apparent KD of MS2 coat protein (input ligand: none) [nM]	apparent KD of MS2 coat protein [2] [nM]	apparent KD of MS2 coat protein [3] [nM]	apparent KD of MS2 coat protein [4] [nM]
GCGCCAUCGUGAGAUGGCGUAAGUACAUGAGGAUCACCCAUGUAGGAUAUCGAUUGCUUUGCAGUCGAGAAGGGCGUGAUAAGU [JL ENG3 3.81] (Eterna round: R96, puzzle: Exclusion NG 3)	97.3	64.1	76.9			
AGUAACUAUCACGAAAGUGAUAGUUACACAAGCAGUGAUACAUGAGGAUCACCCAUGUCCUCAUUUGCUCGUCUUAU [Sensor 3 - 28] (Eterna round: R96, puzzle: Sensor v3, turn-off variant 2)	87.4	472	91.9			
AAACGCUGAGGAUAUGCGCCGAGGCACAUGAGGAUCACCCAUGUGACCUCACUGCCUUGAGCAGAAGGCAGAAAAU [Vezaatinxe] (puzzle: Exclusion 5)				137	56.4	53
GGUAAGCUAGGAUAUGCUUUGGGAAAGCAUUCCUUCGAUAAACUUGAGGAUCACCCAAGUAGAAGGAGCUUACG [salish99_ex2_r4_015] (Eterna round: R97, puzzle: Exclusion 2)	16.7		12.8			
ACACAACAUGAGGAUCACCCAUGUCAGGAUAUGCAGAACAAGAACAAGACAAGACAGAGCAGAAGGGACAACAC [Ex 1 M5] (Eterna round: R96, puzzle: Exclusion 1)	49	29.6	36.3			
AUUAAGCAGCAGGAUAUAAGUAUCUAAAGGUGGUUAGAAGGGCUGACAUGAGGAUCACCCAUGUGCUCUUCGUG [Reusat] (puzzle: Exclusion 6)					13.3	
AAGAUGCGGAUAGGAUAUGGAAAAAAAAAAAGACCAGAAGGAUUGGUCAUAUAACAUGAGGAUCACCCAUGUAUAUGUUGUGAA [AK ExNG1-3] (Eterna round: R96, puzzle: Exclusion NG 1)	17.8	21.3	19.3			
GAAUAGGCAGGAUAUACAUGAGGAUCACCCAUGUGCCGGCGAUAGGUACGAUCGAAAGGUAGAAGGGCCUAAAC [ChP 13.04.2015 #8] (puzzle: Exclusion 3)				30.7	140	127
GCAAGCUUAGGAUAUACAUGAGGAUCACCCAUGUCGUGAAUUUCGAUGCUUAAUGGCGGUAGAAGGAGGCUUGA [Eternabot (L2) Solution 12] (Eterna round: R97, puzzle: Exclusion 3)	31.2		18.8			
AAAAGCUUUUUAAAAAAAAACAUGAGGAUCACCCAUGUUAAAAAAUAUAAGGUGAUAAAAAAUUGUCAAAAAAAAAA [Jieuxbot 008 - Jieux - Sensor v2, turn-off variant] (Eterna round: R96, puzzle: Sensor v2, turn-off variant)	129	148	108			
GCACUGCGAGGAUAUACAUGAGGAUCACCCAUGUGUCCGCAGCGAUGCGAGUACAAAUGUAGAAGGCGCGUAAA [EX3 #57] (Eterna round: R97, puzzle: Exclusion 3)	34.1		14.3			
AUCGUGCAGCAAAGCUGUACGAGUACAUGAGGAUCACCCAUGUAGGAUAUGGUACGCAAAGCGUGCUAGAAGGAUAUGUGUAAG [Mat - Exclusion NG 3 - Mod of JL - D85] (Eterna round: R96, puzzle: Exclusion NG 3)	65.5	39.9	61.6			
AAUACACAUGAGGAUCACCCAUGUUAGGAUAUGAGCGGGCAGACAGACAGACAGACGAUCAGAAGGAAUAGGAA [Excls1-VI] (puzzle: Exclusion 1)				25.5	30.2	28.9
CACCUGAAGAGAGGAUAUCAUACAUGAGGAUCACCCAUGUAAUAAAUGAGAAUUUCGAAUGUAAUUGAGAAGGCUCGAUAAGGC [Ostricism 92 - Jieux - Exclusion NG 2] (Eterna round: R96, puzzle: Exclusion NG 2)	109	54.9	59			
GAUUUAGAGCAGGAUAUCAUAGAAAUGUAUGAAUGAGAAGGGCUCACAUGAGGAUCACCCAUGUGGUCCUAGAU [JL Dibiri mod 20] (puzzle: Exclusion 6)				144	23.5	20.3
UUGUUGUAUGUAGGAUAUGCGUGUUAUUAUUAUGCAGAAGGACAUGAGGAUCACCCAUGUGUAUUAUUAUUAUAUAUUAUAUAU [Title] (Eterna round: R96, puzzle: Exclusion NG 1)		14.1				
UCUCGACAUGAGGAUCACCCAUGUCAGGAUAUUGUAUUGGAGGUGUUUAACCUUAUGGCAAGAAGGGAUGUGUG [LRO-Excl1-25] (puzzle: Exclusion 1)					22.9	

Sequence	apparent KD of MS2 coat protein (input ligand: FMN 200 uM) [nM]	apparent KD of MS2 coat protein [1] [nM]	apparent KD of MS2 coat protein (input ligand: none) [nM]	apparent KD of MS2 coat protein [2] [nM]	apparent KD of MS2 coat protein [3] [nM]	apparent KD of MS2 coat protein [4] [nM]
CACCGUUACAGAGGAUAUGUCACAUGAGGAUCACCCAUGUAAUAAAUGAGAAUUUCGAAUGUAACACAGAAGGCUGGAAUCGGC [Ostricism 76 - Jieux - Exclusion NG 2] (Eterna round: R96, puzzle: Exclusion NG 2)	37.1	18.1	26.5			
UCCUCACAUGAGGAUCACCCAUGUCAGGAUAUAAGAAACGCGGAAGGCAGCCGCAAAAUUAGAAGGGACAUUAA [EX1 A.25] (Eterna round: R97, puzzle: Exclusion 1)	39.7		20.6			
ACAAGAAUUUUGCUCGUAAAGUAGGAACGCGAGAGCGGGACAUGAGGAUCACCCAUGUAGAGGCAGUUGGUGGAGAU [JR_SV3TOV2_Sub029] (puzzle: Sensor v3, turn-off variant 2)				42.2	56	43.4
UGUUAUAGAGGAUAUGCGUGAAUAUAGAUUCAUGGAAAUUUACAUGAGGAUCACCCAUGUAGAAGGCUGUGUUU [LRO-Excl2-17-mod 090 by JR] (Eterna round: R97, puzzle: Exclusion 2)	14.6		15.6			
AAAAAACAUGAGGAUCACCCAUGUAAGGAUAUGCUGAAAAACACGGAAAAAACGUGCAGCAGAAGGUACAAAAG [Mat - Exclusion 1 - Eli mod - D90] (Eterna round: R96, puzzle: Exclusion 1)	100	55	61.6			
GUUGUUUAUGUAGGAUAUGCCUGGCGUGCCUUUGCAGAAGGACAUGAGGAUCACCCAUGUAUUGCGGUCUGCGUUCAGAUCGCG [salish99_ExNG1_r4_040] (Eterna round: R96, puzzle: Exclusion NG 1)	58.3	27.8	30			
GUAAAGGUAGGAUAUACGAAGAAAAAGGGUAGAAUAAUAACACAUGAGGAUCACCCAUGUAGAAGGACCAAAUG [Mat - Exclusion 2 - Mod of my Tesla design - D5] (puzzle: Exclusion 2)				65.7	26.5	32.4
AUUUUAUAUGAAGGAUAUACUUAACAUGAGGAUCACCCAUGUGGUGUUGUGAGUGAGUGAGUUUAGUAGAAGGUCAAGUAUUUU [JMF's solution 55] (Eterna round: R96, puzzle: Exclusion NG 2)	724	284	396			
UUAAAUCAUGUAGGAUAUGCGUGGCGAAGCUAUGCAGAAGGACAUGAGGAUCACCCAUGUUCUUCCGUCUGCGUACAGAUGGAA [JL ENG1 1.08] (Eterna round: R96, puzzle: Exclusion NG 1)	271	33.8	36.3			
ACUUGCUAUUUGCUCGUCUUAUCCUUGUUUGUUUACUAUACAUGAGGAUCACCCAUGUUAUAUUUAAGGGUGUGAUA [JR_SV3TOV2_Sub075] (puzzle: Sensor v3, turn-off variant 2)				141	322	166
CUCUUGGCAGGAUAUGCAAUUUUAGACAUGAGGAUCACCCAUGUGAUCAUUCCAUAUUAUGCAGAAGGGCCUAAAC [JR_E5_Sub049] (Eterna round: R96, puzzle: Exclusion 5)	238	27.4	39.2			
AUGCUCCGUGUAGGAUAUCGCCGUAUCACUCGGCGAGAAGGACAUGAGGAUCACCCAUGUAUGUUAUUAUCACGUGUGGCGCGC [Design 45] (Eterna round: R96, puzzle: Exclusion NG 1)	55.2	14.8	18.3			
ACUAGAUGAGGAUAUGCAUAUUUUCGUGUUCUUCUAGAUUAACAUGAGGAUCACCCAUGUAGAAGGCGUCUGGC [Exclusion 2 - 20] (puzzle: Exclusion 2)					18	
CCAAGCUUAUUCAUUAACCACAUGAGGAUCACCCAUGUCUUGGCAAUUAUGACUUGCCCGUCAGGUGCUCGUCUUAU [Sensor-V1 #34] (Eterna round: R97, puzzle: Sensor, turn-off variant 1)	32.2		32.9			
ACUAGAUGAGGAUAUGCAUAUUUUCGUGUUCUUCUAGAUUAACAUGAGGAUCACCCAUGUAGAAGGCGUCAUUA [Exclusion 2 - 17] (puzzle: Exclusion 2)					16.6	
UGUUGGCGAGGAUAUACAUGAGGAUCACCCAUGUGAGAGAAAAAAGUGAGGAAGAAAAGUAGAAGGCGCUGACU [salish99_ex3_r3_044] (puzzle: Exclusion 3)				254	44	51.8
